Measurements reported in PMC10575594.

Legend:
[1] = biological target: human 40S small ribosomal subunit (human) (UniProt P23396); assay: cryo-EM structure
[2] = biological target: Cy3-labeled human 40S subunit (human) (UniProt P62841); assay: FRET or BRET

| Substance | fraction of 40S complexes with density for the Nsp1 linker and NTD [1] | fraction of tethered 40S complexes that yielded FRET [2] | koff [2] | lifetime of the FRET signal [2] |
| --- | --- | --- | --- | --- |
| Bat-Hp-CoV Nsp1 wild type (natural protein) | 15% |  |  |  |
| Cy5-labeled Bat-Hp-CoV Nsp1 (natural protein) |  | 10 to 20% | < 0.01 s⁻¹ | > 100 s |
